US20240132578A1

What was measured:
Test in all cases: cell-based or functional assay
[1] = molecular target: HIV-1 JR-CSF Env I326A (HIV-1 isolate JR-CSF) (UniProt P20871)
[2] = molecular target: HIV-1 JR-CSF envelope glycoprotein (Env), wild type, on pseudovirus (HIV-1 isolate JR-CSF (clade B)) (UniProt P20871)
[3] = molecular target: HIV-1 Env of isolate APV-13 (Clade B) (HIV-1)
[4] = molecular target: HIV-1 SF162 envelope protein (Env) on pseudotyped virus (HIV-1 isolate SF162) (UniProt P19550)
[5] = molecular target: HIV-1 92RW020 envelope glycoprotein (Env), on pseudovirus (HIV-1 isolate 92RW020 (clade A))
[6] = molecular target: HIV-1 92BR020 envelope protein (Env) on pseudotyped virus (HIV-1 strain 92BR020)
[7] = molecular target: HIV-1 ADA envelope glycoprotein (Env), on pseudovirus (HIV-1 isolate ADA)
[8] = molecular target: HIV-1 envelope glycoprotein (Env) of isolate MG RM-A-005 (HIV-1)
[9] = molecular target: HIV-1 envelope glycoprotein (Env) of isolate 92WR024 (HIV-1)
[10] = molecular target: HIV-1 Env of isolate 94KE105 (pseudovirus) (HIV-1)
[11] = molecular target: HIV-1 Env of isolate MG RM-D-004 (subtype D) (HIV-1)
[12] = molecular target: HIV-1 Env of isolate MGRM-F1-012 (subtype F) (HIV-1)
[13] = molecular target: HIV-1 Env of isolate MG RM-D-019 (subtype D) (HIV-1)
[14] = molecular target: HIV-1 Env of isolate MGRM-F1-006 (subtype F) (HIV-1)
[15] = molecular target: HIV-1 Env of isolate MGRM-C-025 (clade C pseudovirus) (HIV-1)
[16] = molecular target: HIV-1 Env of isolate MGRM-F1-010 (subtype F) (HIV-1)
[17] = molecular target: HIV-1 envelope glycoprotein (Env) of isolate 92WR020 (HIV-1)
[18] = molecular target: HIV-1 Env of isolate MG RM-D-002 (subtype D) (HIV-1)
[19] = molecular target: HIV-1 envelope glycoprotein (Env) of isolate 92WR009 (HIV-1)
[20] = molecular target: HIV-1 envelope glycoprotein (Env) of isolate 93UG077 (HIV-1)
[21] = molecular target: HIV-1 Env of isolate MGRM-Chronic-B-008 (subtype B), on pseudovirus (HIV-1)
[22] = molecular target: HIV-1 Env of pseudovirus 98CN009 (HIV-1)
[23] = molecular target: HIV-1 Env of isolate MG RM-D-020 (subtype D) (HIV-1)
[24] = molecular target: HIV-1 Env of isolate MGRM-Chronic-B-017 (subtype B), on pseudovirus (HIV-1)
[25] = molecular target: HIV-1 Env of isolate MGRM-A-012 (pseudovirus) (HIV-1)
[26] = molecular target: HIV-1 Env of isolate MGRM-Chronic-B-010 (subtype B), on pseudovirus (HIV-1)
[27] = molecular target: HIV-1 Env of isolate 92UG046 (subtype D) (HIV-1)
[28] = molecular target: HIV-1 Env of isolate MGRM-F1-004 (subtype F) (HIV-1)
[29] = molecular target: HIV-1 Env of isolate MG RM-D-016 (subtype D) (HIV-1)
[30] = molecular target: HIV-1 envelope glycoprotein (Env) of isolate MG RM-A-009 (HIV-1)
[31] = molecular target: HIV-1 Env of isolate 6535.3 (subtype B), on pseudovirus (HIV-1)
[32] = molecular target: HIV-1 Env of isolate MG RM-C-022 (HIV-1)
[33] = molecular target: HIV-1 envelope glycoprotein (Env) of isolate MG RM-A-003 (HIV-1)
[34] = molecular target: HIV-1 Env of isolate MG RM-D-003 (subtype D) (HIV-1)
[35] = molecular target: HIV-1 Env of isolate MGRM-A-010 (pseudovirus) (HIV-1)
[36] = molecular target: HIV-1 Env of isolate MGRM-C-028 (clade C pseudovirus) (HIV-1)
[37] = molecular target: HIV-1 envelope glycoprotein (Env) of isolate MG RM-A-007 (HIV-1)
[38] = molecular target: HIV-1 Env of isolate MG RM-D-005 (subtype D) (HIV-1)
[39] = molecular target: HIV-1 Env of isolate MG RM-D-014 (subtype D) (HIV-1)
[40] = molecular target: HIV-1 envelope glycoprotein (Env) of isolate 93WR029 (HIV-1)
[41] = molecular target: HIV-1 Env of isolate MGRM-Chronic-B-012 (subtype B), on pseudovirus (HIV-1)
[42] = molecular target: HIV-1 JR-CSF Env T297A (HIV-1 (isolate JR-CSF, clade B)) (UniProt P20871)

1443_C16 (PG16) (TCN-116) (antibody), sequence (VH): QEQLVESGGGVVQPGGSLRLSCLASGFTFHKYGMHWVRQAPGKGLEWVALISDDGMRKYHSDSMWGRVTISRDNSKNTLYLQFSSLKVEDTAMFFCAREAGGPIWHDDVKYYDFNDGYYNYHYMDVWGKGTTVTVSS
1443_C16 (PG16) (TCN-116) (antibody), sequence (VL): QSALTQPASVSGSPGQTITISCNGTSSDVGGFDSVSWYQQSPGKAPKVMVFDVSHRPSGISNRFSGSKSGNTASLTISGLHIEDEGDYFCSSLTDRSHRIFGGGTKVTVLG

Substance: 5114_A19 (PGT-128) (antibody)
- Fold IC50 increase relative to wild-type [1]: 1.6 fold

Substance: 1443_C16 (PG16) (TCN-116) (antibody)
- IC50 (ug/ml), pseudovirus neutralization, TZM-bl assay [2]: 0.001 µg/mL
- IC90 (neutralization of pseudovirus) [3]: > 50 µg/mL
- IC50, Neutralizing Antibody Assay, Virus/Ab Incubation 1 hour [4]: > 50 µg/mL
- IC50, Neutralizing Antibody Assay, Virus/Ab Incubation 18 hour [4]: > 50 µg/mL
- IC50 (ug/ml), pseudovirus neutralization, TZM-bl assay [5]: 0.09 µg/mL
- IC50, Neutralizing Antibody Assay, Virus/Ab Incubation 1 hour [6]: > 50 µg/mL
- IC50, Neutralizing Antibody Assay, Virus/Ab Incubation 18 hour [6]: > 50 µg/mL
- IC50 (ug/ml), pseudovirus neutralization, TZM-bl assay [7]: 0.004 µg/mL

Substance: PGV04 (antibody)
- IC50 [8]: 0.134 µg/mL
- IC50 [9]: 0.31 µg/mL
- IC50 (µg/mL), pseudovirus neutralization [10]: 2.98 µg/mL
- IC50 (µg/mL), pseudovirus neutralization [11]: 43.2 µg/mL
- IC50 (µg/mL), pseudovirus neutralization [12]: 0.25 µg/mL
- IC50 (µg/mL), pseudovirus neutralization [13]: 0.35 µg/mL
- IC50 (µg/mL), pseudovirus neutralization [14]: > 50 µg/mL
- IC50 (µg/mL), single-round pseudovirus neutralization [15]: > 50 µg/mL
- IC50 (µg/mL), pseudovirus neutralization [16]: 0.184 µg/mL
- IC50 [17]: 0.055 µg/mL
- IC50 (µg/mL), pseudovirus neutralization [18]: 0.322 µg/mL
- IC50 [19]: 0.108 µg/mL
- IC50 [20]: 0.083 µg/mL
- IC50, single-round pseudovirus neutralization [21]: 0.166 µg/mL
- IC50, pseudovirus neutralization [22]: 0.0125 µg/mL
- IC50 (µg/mL), pseudovirus neutralization [23]: 0.097 µg/mL
- IC50, single-round pseudovirus neutralization [24]: 0.129 µg/mL
- IC50 (µg/mL), pseudovirus neutralization [25]: 0.225 µg/mL
- IC50, single-round pseudovirus neutralization [26]: 0.744 µg/mL
- IC50 (µg/mL), pseudovirus neutralization [27]: 22.4 µg/mL
- IC50 (µg/mL), pseudovirus neutralization [28]: 0.58 µg/mL
- IC50 (µg/mL), pseudovirus neutralization [29]: 0.201 µg/mL
- IC50 [30]: 0.033 µg/mL
- IC50, single-round pseudovirus neutralization [31]: 0.757 µg/mL
- IC50 (µg/mL), pseudovirus neutralization [32]: 18.3 µg/mL
- IC50 [33]: 0.128 µg/mL
- IC50 (µg/mL), pseudovirus neutralization [34]: > 50 µg/mL
- IC50 (µg/mL), pseudovirus neutralization [35]: 0.205 µg/mL
- IC50 (µg/mL), single-round pseudovirus neutralization [36]: 0.149 µg/mL
- IC50 [37]: 7.21 µg/mL
- IC50 (µg/mL), pseudovirus neutralization [38]: > 50 µg/mL
- IC50 (µg/mL), pseudovirus neutralization [39]: 0.194 µg/mL
- IC50 [40]: 0.54 µg/mL
- IC50, single-round pseudovirus neutralization [41]: > 50 µg/mL

Substance: 5343_B08 (PGT-135) (antibody)
- Fold IC50 increase relative to wild-type [42]: > 30 fold

Substance: b12 (antibody)
- IC90 (neutralization of pseudovirus) [3]: > 50 µg/mL
